Legend:
[1] = Measurement over time of AM concentration in plasma after subcutaneous administration (RIA); assay type: in vivo; conditions: 10 nmol/kg subcutaneous single dose, rat
Experimental: 1 day, 7 days and 10 days after the start of the administration, 50 mg of pentobarbital was intraperitoneally administered, and 300 μL of blood was collected each time from the tail vain under anesthesia. Immediately, 300 μg of EDTA-2Na and […] of aprotinin were added to the obtained blood sample, and the mixture was centrifuged under conditions involving 10 minutes and 3000 rpm to obtain plasma. The AM concentration in the plasma of each sample was measured by radioimmunoassay (RIA) (Kitamura K, Ichiki Y, Tanaka M et al., Immunoreactive adrenomedullin in human plasma. FEBS Lett., vol. 341, p. 288-90, 1994).
The compound (37) prepared in experiment III-1 was subcutaneously administered in a single dose of 30 nmol/kg to each rat, and time-dependent change in the concentration in blood of the adrenomedullin derivative was observed. The compound (37) dissolved in physiological saline was subcutaneously administered to each 7- to 8-week-old male Wistar rat (approximately 250 g). 1 day, 2 days, 4 days, 7 days and 9 days after the start of the administration, 50 mg of pentobarbital was intraperitoneally administered, and 300 μL of blood was collected each time from the tail vain under anesthesia. Immediately, 300 μg of EDTA-2Na and […] of aprotinin were added to the obtained blood sample, and the mixture was centrifuged under conditions involving 10 minutes and 3000 rpm to obtain plasma. The AM concentration in the plasma of each sample was measured by RIA.

[2] = test system: DSS-induced colitis models; assay: Dextran sodium sulfate (DSS)-induced colitis model; assay type: in vivo; conditions: mouse
Experimental: The compound (8) was subcutaneously administered to the back of each mouse. On the day following the administration (day 0), colitis model preparation was started by administration of 3% DSS as drinking water for 7 days. […] Physiological saline was administered as a vehicle to a control group. The body weight and the form of stool were evaluated on days 3, 5 and 7 counted from the start date of the DSS administration (day 0) on the basis of the scores shown in Table 4.

Substance: GL-2-branched CH3O-PEG (60k)-CH2-^αNH-(h.AM (1-52)) [Compound (8)]
- level at time molar at 24 h ([1]; 1 day later): ≥ 2600 pM
- level at time molar at 24 h ([1]; 7 days later): ≥ 740 pM
- level at time molar at 24 h ([1]; 10 days later): ≥ 280 pM
- wet weight of the intestinal tract as compared to the vehicle control group ([2]; 5 nmol/kg subcutaneous): tendency to decrease
- length of the intestinal tract as compared to the vehicle control group ([2]; 25 nmol/kg subcutaneous): tendency to increase
- total score (weight loss, stool consistency, bleeding/mucous and bloody stool) ([2]; 5 and 25 nmol/kg subcutaneous, 3% DSS): significant decrease

From US11478551B2, “Long-acting adrenomedullin derivative” (University of Miyazaki, priority 2015, dated 2022)
